Results: publication PMC3285272 (Cell, 2012)

Columns and labels:
Test in all cases: pull-down
[1] = target: T1, γζ-COP lacking the C-terminal appendage domain of γ-COP (γ-COP 1–617) (B. taurus, UniProt P53620 1-617; P35604 1-177)
T1 sequence (looked up) 1: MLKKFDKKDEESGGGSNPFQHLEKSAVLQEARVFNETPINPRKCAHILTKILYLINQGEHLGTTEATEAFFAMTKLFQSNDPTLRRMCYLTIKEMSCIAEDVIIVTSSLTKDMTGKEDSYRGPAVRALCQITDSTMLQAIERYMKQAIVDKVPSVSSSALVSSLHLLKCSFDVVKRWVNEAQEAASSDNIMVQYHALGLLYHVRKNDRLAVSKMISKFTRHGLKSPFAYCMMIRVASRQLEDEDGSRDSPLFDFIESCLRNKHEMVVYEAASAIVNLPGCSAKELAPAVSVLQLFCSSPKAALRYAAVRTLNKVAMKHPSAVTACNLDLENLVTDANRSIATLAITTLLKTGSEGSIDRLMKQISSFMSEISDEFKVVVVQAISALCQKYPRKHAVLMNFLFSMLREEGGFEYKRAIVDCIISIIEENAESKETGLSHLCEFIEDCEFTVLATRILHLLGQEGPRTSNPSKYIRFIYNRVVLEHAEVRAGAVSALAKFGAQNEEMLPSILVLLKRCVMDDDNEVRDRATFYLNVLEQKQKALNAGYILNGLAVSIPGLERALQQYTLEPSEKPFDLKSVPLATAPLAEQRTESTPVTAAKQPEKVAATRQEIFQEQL
T1 sequence (looked up) 2: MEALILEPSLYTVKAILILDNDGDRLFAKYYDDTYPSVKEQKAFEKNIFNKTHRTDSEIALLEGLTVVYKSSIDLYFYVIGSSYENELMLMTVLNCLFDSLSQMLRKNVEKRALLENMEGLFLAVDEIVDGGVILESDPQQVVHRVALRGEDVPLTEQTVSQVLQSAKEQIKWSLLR

full-length βδ-COP dimer = target: T2, full-length βδ-COP dimer (R. norvegicus | B. taurus, UniProt P23514 1-953; P53619 1-511)
T2 sequence (looked up) 1: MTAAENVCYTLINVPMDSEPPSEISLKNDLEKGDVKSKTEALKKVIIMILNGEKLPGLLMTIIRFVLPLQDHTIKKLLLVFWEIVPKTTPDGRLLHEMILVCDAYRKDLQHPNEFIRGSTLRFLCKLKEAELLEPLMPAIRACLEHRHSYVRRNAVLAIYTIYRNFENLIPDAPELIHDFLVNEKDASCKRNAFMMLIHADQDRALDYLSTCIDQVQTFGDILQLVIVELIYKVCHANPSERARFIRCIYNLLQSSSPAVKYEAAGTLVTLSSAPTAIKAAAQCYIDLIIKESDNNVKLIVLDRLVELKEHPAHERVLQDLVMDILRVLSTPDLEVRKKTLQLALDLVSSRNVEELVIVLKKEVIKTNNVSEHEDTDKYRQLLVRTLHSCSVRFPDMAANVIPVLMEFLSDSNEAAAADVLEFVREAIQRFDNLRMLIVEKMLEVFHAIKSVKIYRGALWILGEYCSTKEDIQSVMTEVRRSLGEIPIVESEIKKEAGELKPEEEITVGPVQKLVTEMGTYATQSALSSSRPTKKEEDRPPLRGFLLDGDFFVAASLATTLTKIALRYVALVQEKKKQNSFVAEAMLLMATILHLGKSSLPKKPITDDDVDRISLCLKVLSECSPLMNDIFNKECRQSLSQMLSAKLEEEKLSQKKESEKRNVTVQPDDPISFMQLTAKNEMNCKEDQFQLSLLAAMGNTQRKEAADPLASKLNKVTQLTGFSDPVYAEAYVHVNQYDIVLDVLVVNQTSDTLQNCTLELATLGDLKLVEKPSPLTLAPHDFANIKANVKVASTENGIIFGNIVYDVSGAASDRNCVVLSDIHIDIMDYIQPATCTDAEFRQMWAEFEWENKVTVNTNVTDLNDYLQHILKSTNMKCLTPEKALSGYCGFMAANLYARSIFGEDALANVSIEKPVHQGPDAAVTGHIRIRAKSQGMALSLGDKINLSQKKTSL
T2 sequence (looked up) 2: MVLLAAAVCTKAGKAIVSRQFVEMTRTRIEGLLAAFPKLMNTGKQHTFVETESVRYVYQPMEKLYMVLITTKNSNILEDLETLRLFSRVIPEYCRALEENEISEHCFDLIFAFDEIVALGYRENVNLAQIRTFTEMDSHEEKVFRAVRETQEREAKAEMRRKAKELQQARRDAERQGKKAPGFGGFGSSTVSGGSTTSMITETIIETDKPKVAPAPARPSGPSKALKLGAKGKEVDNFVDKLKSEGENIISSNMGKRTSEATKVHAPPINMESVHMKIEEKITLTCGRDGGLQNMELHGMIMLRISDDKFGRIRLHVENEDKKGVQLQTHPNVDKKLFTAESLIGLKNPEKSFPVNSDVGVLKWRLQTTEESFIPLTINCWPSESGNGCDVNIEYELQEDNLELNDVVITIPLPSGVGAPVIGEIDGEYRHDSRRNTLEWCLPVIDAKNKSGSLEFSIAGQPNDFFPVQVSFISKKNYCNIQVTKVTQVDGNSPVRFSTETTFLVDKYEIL

[2] = target: full-length βδ/γζ-COP complex (R. norvegicus | B. taurus, UniProt P23514 1-953; P53619 1-511; P53620 1-874; P35604 1-177)

- binding result [1]: binds
- binding result (full-length βδ-COP dimer): binds
- binding result [2]: binds
B1: S. cerevisiae Arf1 (residues 18–181) with a C-terminal GST tag (domain or fragment, UniProt P11076 18-181, looked up)
chain: MRILMVGLDGAGKTTVLYKLKLGEVITTIPTIGFNVETVQYKNISFTVWDVGGQDRIRSLWRHYYRNTEGVIFVVDSNDRSRIGEAREVMQRMLNEDELRNAAWLVFANKQDLPEAMSAAEITEKLGLHSIRNRPWFIQATCATSGEGLYEGLEWLSNSLKNST
